Experimental findings from the supplement of paper PMC10126150 are described below.

The data set deals with ATP. In words: switch fluorescence ratio, 500 uM ATP over buffer (Cy3 cluster intensity, sum of 5 cycles each) (fold (ratio)); higher = stronger signal-on switching upon ATP binding; sequences stand for … in TCGTCGGCAGCGTCAGATGTGTATAAGAGACAGTTTTTTTTTTTTTTTTTTTTTTTTT…TC. To be noted: aptamer strand: ATP DNA aptamer (quencher-CACCTGGGGGAGTATTGCGGAGGAAGG + anchor), 100 nM annealed; ATP concentration: 500 uM. In short, it runs like this:
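Imaging in selection buffer was followed by imaging after 15 min with 500 uM ATP at 22 °C, for Cy3-labelled switching-strand clusters annealed to 100 nM quencher-labelled ATP aptamer on a modified Illumina MiSeq flow-cell. Five of these buffer/ATP cycles ran, separated by NaOH stripping and re-annealing. The fluorescence ratio per cluster is summed target-cycle over summed buffer-cycle Cy3 intensity, averaged per switch-domain sequence; clusters outside 100-1000 RFU were removed.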

± gives the standard deviation of the averaged measurements.
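Further: ATP exposure 15 min at 22 °C before imaging.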

Consider AAGTAGATCC, for which the switch fluorescence ratio is 1.04 ± 0.044.

Turning to AAGTAGATGG, the switch fluorescence ratio was determined as 0.991 ± 0.029. As for AAGTAGCCGT, the switch fluorescence ratio turned out to be 1.19 ± 0.19. For AAGTAGTGGG, the switch fluorescence ratio came to 0.96 ± 0.028. As to AAGTATATGG, the switch fluorescence ratio came to 1.03 ± 0.029.

With AAGTATATGT, the switch fluorescence ratio came out at 0.998 ± 0.027. As to AAGTATATTG, the switch fluorescence ratio turned out to be 0.991 ± 0.025. Take AAGTATCGAC: the switch fluorescence ratio stood at 1.05 ± 0.023. On to AAGTATTATT, for which the switch fluorescence ratio was found to be 0.983 ± 0.03.

As to AAGTATTTCG, the switch fluorescence ratio was 0.9995 ± 0.0062. The same measure for AAGTCAGCTG: 0.9826 ± 0.004. In the case of AAGTCGAGTC, the switch fluorescence ratio was found to be 0.996 ± 0.018.

AAGTCGCTGT: the switch fluorescence ratio was found to be 1.02 ± 0.016. The same measure for AAGTCGGGGG: 1 ± 0.029; for AAGTCGGTGG: 0.987 ± 0.07. In the case of AAGTCGGTGT it was 0.988 ± 0.027; in that of AAGTCTAAGG, 0.964 ± 0.05.

With AAGTCTGCCA, the switch fluorescence ratio stood at 1.47 ± 0.66. In the case of AAGTGAGGCA it was 0.963 ± 0.06; in that of AAGTGAGGGT, 0.996 ± 0.036; in that of AAGTGATGGG, 0.988 ± 0.045.

Regarding AAGTGATTTG, the switch fluorescence ratio was 1.01 ± 0.018.

AAGTGCGGGA: the switch fluorescence ratio worked out at 0.9967 ± 0.0086.

For the sequence AAGTGCTTTT, the switch fluorescence ratio is 1.01 ± 0.052. Turning to AAGTGGCCGT, the switch fluorescence ratio was 1.01 ± 0.041.

Turning to AAGTGGGTTC, the switch fluorescence ratio is 0.9824 ± 0.0052. Turning to AAGTGGTCAC, the switch fluorescence ratio is 1.01 ± 0.029.

Consider AAGTGGTGCA, for which the switch fluorescence ratio amounted to 0.974 ± 0.013.

In the case of AAGTGGTGCT, the switch fluorescence ratio was determined as 1.024 ± 0.0011. Turning to AAGTGTAGAG, the switch fluorescence ratio is 1.027 ± 0.0092. In the case of AAGTGTATGC it was 1.01 ± 0.038; in that of AAGTGTATGG, 0.997 ± 0.0098; in that of AAGTGTTCAG, 0.982 ± 0.027. In the case of AAGTTAATTT it was 0.998 ± 0.021. Turning to AAGTTACTAC, the switch fluorescence ratio worked out at 1.06 ± 0.027. With AAGTTAGGGA, the switch fluorescence ratio worked out at 0.919 ± 0.083. The same measure for AAGTTATGCT: 1 ± 0.014; for AAGTTCACAA: 1.01 ± 0.033; for AAGTTCACCA: 1.02 ± 0.018. In the case of AAGTTCTATA, the switch fluorescence ratio worked out at 1.01 ± 0.043.

AAGTTGATAA: the switch fluorescence ratio was found to be 1 ± 0.035. Consider AAGTTGATTC, for which the switch fluorescence ratio amounted to 0.979 ± 0.016. In the case of AAGTTGCTTG it was 0.989 ± 0.02. The same measure for AAGTTGGAGT: 1.02 ± 0.027; for AAGTTGGATA: 0.993 ± 0.019.

Regarding AAGTTGGGCT, the switch fluorescence ratio was 1.01 ± 0.025. The same measure for AAGTTGGGGG: 1.01 ± 0.025; for AAGTTGTGGG: 0.967 ± 0.043.

For the sequence AAGTTGTGTT, the switch fluorescence ratio turned out to be 0.996 ± 0.033.

Consider AAGTTTACGC, for which the switch fluorescence ratio was determined as 0.983 ± 0.025. Take AAGTTTATAG: the switch fluorescence ratio turned out to be 1.03 ± 0.0066. For AAGTTTGAGT, the switch fluorescence ratio came to 0.982 ± 0.022.

In the case of AAGTTTGATA, the switch fluorescence ratio came out at 0.981 ± 0.058. In the case of AAGTTTGTTA, the switch fluorescence ratio was determined as 0.995 ± 0.042.

In the case of AAGTTTTATG, the switch fluorescence ratio is 1.03 ± 0.059. The same measure for AAGTTTTGCA: 1.007 ± 0.0091. The same measure for AATAAACAGC: 1.006 ± 0.0078; for AATAAAGGTT: 1.1 ± 0.18.

For the sequence AATAACTAGA, the switch fluorescence ratio came to 0.9804 ± 0.0037. In the case of AATAACTAGG it was 1 ± 0.025; in that of AATAAGAGAG, 1.001 ± 0.0078; in that of AATAAGGATA, 1.01 ± 0.026. In the case of AATAAGGTA, the switch fluorescence ratio was 0.995 ± 0.022.

Regarding AATAAGGTTG, the switch fluorescence ratio came to 0.982 ± 0.04. Regarding AATAAGTGGT, the switch fluorescence ratio was determined as 0.989 ± 0.023. The same measure for AATAAGTTGT: 0.999 ± 0.035; for AATAATAGCC: 1.01 ± 0.042.

Regarding AATAATCGCC, the switch fluorescence ratio was 1 ± 0.05. As for AATAATCGGT, the switch fluorescence ratio turned out to be 0.975 ± 0.035.

With AATAATGCGG, the switch fluorescence ratio was 0.9969 ± 0.0071.

Consider AATAATTTGG, for which the switch fluorescence ratio stood at 0.978 ± 0.012. In the case of AATACCATTT it was 1.01 ± 0.035. The same measure for AATACGGGAC: 1.303 ± 0.0093; for AATACTGAGC: 1.04 ± 0.053; for AATACTTGGG: 0.966 ± 0.01. AATAGAGGTC: the switch fluorescence ratio was 0.988 ± 0.013. In the case of AATAGATTCG it was 0.982 ± 0.017. In the case of AATAGCTCGG it was 0.9867 ± 0.0047.
